Data: IntAct's records for PubMed 11571280

B1: Polycomb protein Pcl (Drosophila melanogaster (Fruit fly)), Q24459 (parent)
chain: MMNNHFHLQHDHPPQNVAHPFMQQPSTAVPSAPPATYGYLAQPAGQQPQWMTTTYQILPPSVGPATVAKRYYATTGPQTTHPTHPSTIQITNSFAQQSTPPKQQAATSCSPFKANNIRIISTAPSVYSLNKPPQEAHSTYAPVQSYYLPSGGGQTAGQINLLAASGTGKQLQPPPLVPVTNSTSPPSTVVLDRINICINNHYTETPTSLSSSLTTAQQPSPIIPAIQHKAILPLIDSSTADSSSCSSSSVSSSSYSGTATTSAAVVIVDEPDSTTTTPQTPPTTPEAMSSPGKSSPSPPLLATQSLLKGVNSMKPSFKTVEAAPPTPPTPPSPPPPPPAPPVAAPSPAVTYALQEDVFIKCNDGRFYLGTIIDQTSDQYLIRFDDQSEQWCEPDKLRKLGGGSSITAGGGGASTTESTNTSPSGPMCVACKRSDIEDVVEICERCGRGYHRGCTVEIVTGSGIWSCKRCAKPMKMQQPVSHKITKPAGICRQLPYHADKLSWDEKHRVNEEQIYCYCGKPGKFDHNMLQCCKCRNWFHTQCMQNFKKKLLRGDMFFVFCCTVCNNGIEFVRRMQIEWVDVLHIALYNLRKHQHQKYHHLLNDIWPFILEQRHQLPICEKWRTLPETALMERLKQTLKDYSDRFVCGREFKRAPAFYALRHSGPPHIPKVFLEPHEELSDELLEKRFKLMLMPEEPDEGANELPKRVPKDVYEFNTDEDDPVETSEDEIPIKQIIEKAKKQAAQKADKHDELPLKPDLADDNANDGDPGKLPAPIPPLLDANSSRKRKAFRLSKRYDNSRNHCDLSSDENSSSSRGTSSLDLIIPPPVNFLGRNNPFLMATPKKASQGRSISVGTGVGVNGIINSIFKLKGTSKEQPRMVRTIKRRLSAKDITIGPNQEVRRRRTRRLTTAIEVISTTTINPIPSHYLPIYAKDLQPPAPPMGKPTHGRLLRQRPQKQSPSQSRRNSTSSTATSSSSNGIGAPGHSMLDLKQSVNKYFGGAMNRIDAGEPFAIRAKRRMGNGQVQYLVEWGGDTATTAIGLLGN

Variants of: B1
Details: with ez_drome E(z)

Effect of a mutation on the interaction, decreasing interaction:
C430A
C430S
C517S
C517A
